Source: patent US20040259244A1, “Methods, compositions, and growth and differentiation factors for insulin-producing cells” (priority 2002, published 2004)

Tested on: conversion of stem cells into insulin producing cells
Format: cell-based
Conditions: statistical analysis of insulin content of supernatants, 3 donors, combinatorial array in alginate

Row | Molecule | effect on the conversion of stem cells into insulin producing cells
1 | Activin A: growth and differentiation factor (protein, UniProt P08476 311-426, looked up) Inhibin beta A chain: GLECDGKVNICCKKQFFVSFKDIGWNDWIIAPSGYHANYCEGECPSHIAGTSGSSLSFHSTVINHYRMRGHSPFANLKSCCVPTKLRPMSMLYYDDGQNIIKKDIQNMIVEECGCS | potential negative effect
2 | Betacellulin: growth and differentiation factor (protein, UniProt P35070 32-111, looked up) Betacellulin: DGNSTRSPETNGLLCGDPEENCAATTTQSKRKGHFSRCPKQYKHYCIKGRCRFVVAEQTPSCVCDEGYIGARCERVDLFY | potential positive effect
3 | Soybean Trypsin Inhibitor: A high-molecular-weight protein (approximately 22,500) containing 198 amino acid residues (protein, UniProt P01070 25-205, looked up) Trypsin inhibitor A: DFVLDNEGNPLENGGTYYILSDITAFGGIRAAPTGNERCPLTVVQSRNELDKGIGTIISSPYRIRFIAEGHPLSLKFDSFAVIMLCVGIPTEWSVVEDLPEGPAVKIGENKDAMDGWFRLERVSDDEFNNYKLVFCPQQAEDDKCGDIGISIDHDDGTRRLVVSKNKPLVVQFQKLDKESL | potential negative effect
4 | P1GF: Placental GF, human (protein, UniProt P49763 19-221, looked up) Placenta growth factor: LPAVPPQQWALSAGNGSSEVEVVPFQEVWGRSYCRALERLVDVVSEYPSEVEHMFSPSCVSLLRCTGCCGDENLHCVPVETANVTMQLLKIRSGDRPSYVELTFSQHVRCECRHSPGRQSPDMPGDFRADAPSFLPPRRSLPMLFRMEWGCALTGSQSAVWPSSPVPEEIPRMHPGRNGKKQQRKPLREKMKPERCGDAVPRR | potential negative effect
5 | KGF: keratinocyte growth factor or FGF-7 (protein, UniProt P21781 32-194, looked up) Fibroblast growth factor 7: CNDMTPEQMATNVNCSSPERHTRSYDYMEGGDIRVRRLFCRTQWYLRIDKRGKVKGTQEMKNNYNIMEIRTVAVGIVAIKGVESEFYLAMNKEGKLYAKKECNEDCNFKELILENHYNTYASAKWTHNGGEMFVALNQKGIPVRGKKTKKEQKTAHFLPMAIT | potential positive effect
6 | TGF beta sRII: TGF beta soluble receptor type 2 (protein, UniProt P37173 23-166, looked up, extracellular domain) extracellular domain: TIPPHVQKSVNNDMIVTDNNGAVKFPQLCKFCDVRFSTCDNQKSCMSNCSITSICEKPQEVCVAVWRKNDENITLETVCHDPKLPYHDFILEDAASPKCIMKEKKKPGETFFMCSCSSDECNDNIIFSEEYNTSNPDLLLVIFQ | potential positive effect
7 | Prolactin: A growth factor with strong structural similarity to growth hormone (protein, UniProt P01236 29-227, looked up) Prolactin: LPICPGGAARCQVTLRDLFDRAVVLSHYIHNLSSEMFSEFDKRYTHGRGFITKAINSCHTSSLATPEDKEQAQQMNQKDFLSLIVSILRSWNEPLYHLVTEVRGMQEAPEAILSKAVEIEEQTKRLLEGMELIVSQVHPETKENEIYPVWSGLPSLQMADEESRLSAYYNLLHCLRRDSHKIDNYLKLLKCRIIHNNNC | potential negative effect
8 | BMP-4: Bone Morphogenic Protein (protein, UniProt P12644 293-408, looked up) Bone morphogenetic protein 4: SPKHHSQRARKKNKNCRRHSLYVDFSDVGWNDWIVAPPGYQAFYCHGDCPFPLADHLNSTNHAIVQTLVNSVNSSIPKACCVPTELSAISMLYLDEYDKVVLKNYQEMVVEGCGCR | potential negative effect
